{"source": "paper PMC6699925", "biological_target": "phospholamban (PLN), mouse (mouse (endogenous in mouse heart)) (UniProt P61014)", "sequence (P61014 whole entry)": "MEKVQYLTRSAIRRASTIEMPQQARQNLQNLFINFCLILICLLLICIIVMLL", "assay": "co-IP", "data": [{"substance": "protein phosphatase 1 catalytic subunit (PP1c), mouse (from UniProt P62137 1-330) (enzyme)", "values": [{"measurement": "reduction of PP1c bound to PLN in Ppp1r3a-KO against WT hearts", "value": 58, "unit": "%"}]}]}
